Substrate in series [1]: PET
The series can be described thus: Proxy for plastic degradation [Released monomer concentration (HPLC/LC-MS) (TPA)].

Substrate in series [2]: PET
Description: Proxy for plastic degradation [Released monomer concentration (HPLC/LC-MS) (MHET)].

Substrate in series [3]: BHET
Description: Proxy for plastic degradation [Released monomer concentration (HPLC/LC-MS) (MHET+TPA)].

Where [4] appears, read: pH 10.5, part of the chain shown.

B1: unnamed (protein)
chain: MNFPRASRLMQAAVLGGLMAVSAAATAQTNPYARGPNPTAASLEASAGPFTVRSFTVSRPSGYGAGTVYYPTNAGGTVGAIAIVPGYTARQSSIKWWGPRLASHGFVVITIDTNSTLDQPSSRSSQQMAALRQVASLNGTSSSPIYGKVDTARMGVMGWSMGGGGSLISAANNPSLKAAAPQAPWDSSTNFSSVTVPTLIFACENDSIAPVNSSALPIYDSMSRNAKQFLEINGGSHSCANSGNSNQALIGKKGVAWMKRFMDNDTRYSTFACENPNSTRVSDFRTANCS
Consider B1, for which the “Proxy for plastic degradation” value in series [1] (pH 8, part of the chain shown) is 0 nM; in series [1] (pH 10, part of the chain shown) it was 0 nM; in series [1] (setting [4]), 0 nM; in series [2] (25 °C, part of the chain shown) it was 1300 nM; in series [2] (30 °C, part of the chain shown), 5300 nM; in series [2] (35 °C, part of the chain shown), 2200 nM. The “Proxy for plastic degradation” value was determined as 0 nM in series [2] (40 °C, part of the chain shown); 10.5 nM in series [2] (pH 9, 25 °C, part of the chain shown); 12.9 nM in series [2] (pH 9, 30 °C, part of the chain shown); 8 nM in series [2] (pH 9, 35 °C, part of the chain shown); 5.5 nM in series [2] (pH 9, 40 °C, part of the chain shown); 12700 nM in series [2] (pH 9, part of the chain shown). The “Proxy for plastic degradation” value in series [2] (setting [4]) was 0 nM; in series [3] (pH 5, part of the chain shown) it was 0.58 µM; in series [3] (pH 5.5, part of the chain shown), 0.9 µM; in series [3] (pH 6, part of the chain shown), 1.51 µM; in series [3] (pH 6.5, part of the chain shown), 1.72 µM; in series [3] (pH 7, part of the chain shown) it was 1.72 µM. The “Proxy for plastic degradation” value in series [3] (pH 7.5, 25 °C, part of the chain shown) was 0.95 µM; in series [3] (pH 7.5, 30 °C, part of the chain shown) it was 1.75 µM; in series [3] (pH 7.5, 35 °C, part of the chain shown), 1.04 µM; in series [3] (pH 7.5, 40 °C, part of the chain shown), 0.65 µM; in series [3] (pH 7.5, 45 °C, part of the chain shown) it was 0.3 µM; in series [3] (pH 7.5, 50 °C, part of the chain shown), 0.17 µM. Moreover, the “Proxy for plastic degradation” value in series [3] (pH 7.5, 55 °C, part of the chain shown) was 0.14 µM; in series [3] (pH 7.5, 60 °C, part of the chain shown), 0.16 µM; in series [3] (pH 8, part of the chain shown) it was 1.65 µM; in series [3] (pH 8.5, part of the chain shown), 1.47 µM; in series [3] (pH 9, part of the chain shown) it was 1.1 µM; in series [3] (pH 9.5, part of the chain shown), 0.47 µM.

B2: unnamed (protein)
chain: MNFPRASRLMQAAVLGGLMAVSAAATAQTNPYARGPNPTAASLEASAGPFTVRSFTVSRPSGYGAGTVYYPTNAGGTVGAIAIVPGYTARQSSIKWWGPRLASHGFVVITIDTNSTLDQPSSRSSQQMAALRQVASLNGTSSSPIYGKVDTARMGVMGWSMGGGGSLISAANNPSLKAAIPQAPWDSSTNFSSVTVPTLIFACENDSIAPVNSSALPIYDSMSRNAKQFLEINGGSHSCANSGNSNQALIGKKGVAWMKRFMDNDTRYSTFACENPNSTRVSDFRTANCS
Consider B2, for which the “Proxy for plastic degradation” value in series [1] (pH 9) stood at 10.5 nM; in series [2] (pH 9) it was 13.4 nM; in series [3] (pH 7.5), 0.31 µM.

B3: unnamed (protein)
chain: MNFPRASRLMQAAVLGGLMAVSAAATAQTNPYARGPNPTAASLEASAGPFTVRSFTVSRPSGYGAGTVYYPTNAGGTVGAIAIVPGYTARQSSIKWWGPRLASHGFVVITIDTNSTLDQPSSRSSQQMAALRQVASLNGTSSSPIYGKVDTARMGVMGWSMGGGGSLISAANNPSLKAAAPQAPWDSSTNFSSVTVPTLIFACENDSIAPVASSALPIYDSMSRNAKQFLEINGGSHSCANSGNSNQALIGKKGVAWMKRFMDNDTRYSTFACENPNSTRVSDFRTANCS
Consider B3, for which the results for the “Proxy for plastic degradation” value in series [1] (pH 9), in series [2] (pH 9) and in series [3] (pH 7.5) were 0 nM, 2 nM and 0.42 µM, respectively.

B4: unnamed (protein)
chain: NPYARGPNPTAASLEASAGPFTVRSFTVSRPSGYGAGTVYYPTNAGGTVGAIAIVPGYTARQSSIKWWGPRLASHGFVVITIDTNSTLDQPSSRSSQQMAALRQVASLNGTSSSPIYGKVDTARMGVMGWSMGGGGSLISAANNPSLKAAAPQAPWDSSTNFSSVTVPTLIFACENDSIAPVNSSALPIYDSMSRNAKQFLEINGGSHSCAASGNSNQALIGKKGVAWMKRFMDNDTRYSTFACENPNSTRVSDFRTANCS
Turning to B4, the “Proxy for plastic degradation” value in series [1] (pH 9) worked out at 0 nM; in series [2] (pH 9), 1.5 nM.

B5: unnamed (protein)
chain: NPYARGPNPTAASLEASAGPFTVRSFTVSRPSGYGAGTVYYPTNAGGTVGAIAIVPGYTARQSSIKWLGPRLASHGFVVITIDTNSTLDQPSSRSSQQMAALRQVASLNGTSSSPIYGKVDTARMGVMGWSMGGGGSLISAANNPSLKAAAPQAPWDSSTNFSSVTVPTLIFACENDSIAPVNSSALPIYDSMSRNAKQFLEINGGSHSCANSGNSNQALIGKKGVAWMKRFMDNDTRYSTFACENPNSTRVSDFRTANCS
Turning to B5, the “Proxy for plastic degradation” value in series [1] (pH 9) came out at 0 nM; in series [2] (pH 9), 0 nM; in series [3] (pH 7.5), 0.18 µM.

B6: unnamed (protein)
chain: NPYARGPNPTAASLEASAGPFTVRSFTVSRPSGYGAGTVYYPTNAGGTVGAIAIVPGYTARQSSIKWWGPRLASHGFVVITIDTNSTLDQPSSRSSQQMAALRQVASLNGTSSSPIYGKVDTARMGVMGWSMGGGGSLISAANNPSLKAAAPQAPADSSTNFSSVTVPTLIFACENDSIAPVNSSALPIYDSMSRNAKQFLEINGGSHSCANSGNSNQALIGKKGVAWMKRFMDNDTRYSTFACENPNSTRVSDFRTANCS
Consider B6, for which the “Proxy for plastic degradation” value stood at 2 nM in series [1] (pH 9) and 1.5 nM in series [2] (pH 9).

B7: unnamed (protein)
chain: NPYARGPNPTAASLEASAGPFTVRSFTVSRPSGYGAGTVYYPTNAGGTVGAIAIVPGYTARQSSIKWWGPRLASHGFVVITIDTNSTLDQPSSRSSQQMAALRQVASLNGTSSSPIYGKVDTARMGVMGWSMGGGGSLISAANNPSLKAAAPQAPWDSSTNFSSVTVPTLIFACENDSIIPVNSSALPIYDSMSRNAKQFLEINGGSHSCANSGNSNQALIGKKGVAWMKRFMDNDTRYSTFACENPNSTRVSDFRTANCS
As to B7, the “Proxy for plastic degradation” value came to 11 nM in series [1] (pH 9) and 13 nM in series [2] (pH 9).

B8: unnamed (protein)
chain: NPYARGPNPTAASLEASAGPFTVRSFTVSRPSGYGAGTVYYPTNAGGTVGAIAIVPGYTARQSSIKWWGPRLASHGFVVITIDTNSTLDQPSSRSSQQMAALRQVASLNGTSSSPIYGKVDTARMGVMGWSMGGGGSLISAANNPSLKAAAPQAPWDSSTNFSSVTVPTLIFACENDSIAPVNSSALPIYDSMSRNAKQFLEINGGSHSAANSGNSNQALIGKKGVAWMKRFMDNDTRYSTFACENPNSTRVSDFRTANCS
In the case of B8, the figures for the “Proxy for plastic degradation” value in series [1] (pH 9), in series [2] (pH 9) and in series [3] (pH 7.5) were 0 nM, 0 nM and 0.22 µM, respectively.

B9: unnamed (protein)
chain: NPYARGPNPTAASLEASAGPFTVRSFTVSRPSGYGAGTVYYPTNAGGTVGAIAIVPGYTARQSSIKWWGPRLASHGFVVITIDTNSTLDQPSSRSSQQMAALRQVASLNGTSSSPIYGKVDTARMGVMGWSMGGGGSLISAANNPSLKAAAPQAPWDSSTNFSSVTVPTLIFAAENDSIAPVNSSALPIYDSMSRNAKQFLEINGGSHSAANSGNSNQALIGKKGVAWMKRFMDNDTRYSTFACENPNSTRVSDFRTANCS
As to B9, the “Proxy for plastic degradation” value in series [1] (pH 9, part of the chain shown) worked out at 0 nM; in series [2] (pH 9, part of the chain shown), 0.5 nM.

B10: unnamed (protein)
chain: NPYARGPNPTAASLEASAGPFTVRSFTVSRPSGYGAGTVYYPTNAGGTVGAIAIVPGYTARQSSIKWWGPRLASHGFVVITIDTNSTLDAPSSRSSQQMAALRQVASLNGTSSSPIYGKVDTARMGVMGWSMGGGGSLISAANNPSLKAAAPQAPWDSSTNFSSVTVPTLIFACENDSIAPVNSSALPIYDSMSRNAKQFLEINGGSHSCANSGNSNQALIGKKGVAWMKRFMDNDTRYSTFACENPNSTRVSDFRTANCS
Take B10: the results for the “Proxy for plastic degradation” value in series [1] (pH 9) and in series [3] (pH 7.5) were 6 nM and 0.94 µM, respectively.

B11: unnamed (protein)
chain: NPYARGPNPTAASLEASAGPFTVRSFTVSRPSGYGAGTVYYPTNAGGTVGAIAIVPGATARQSSIKWWGPRLASHGFVVITIDTNSTLDQPSSRSSQQMAALRQVASLNGTSSSPIYGKVDTARMGVMGWSMGGGGSLISAANNPSLKAAAPQAPWDSSTNFSSVTVPTLIFACENDSIAPVNSSALPIYDSMSRNAKQFLEINGGSHSCANSGNSNQALIGKKGVAWMKRFMDNDTRYSTFACENPNSTRVSDFRTANCS
Turning to B11, the “Proxy for plastic degradation” value in series [1] (pH 9) was 21 nM; in series [3] (pH 7.5) it was 1.09 µM.

B12: unnamed (protein)
chain: NPYARGPNPTAASLEASAGPFTVRSFTVSRPSGYGAGTVYYPTNAGGTVGAIAIVPGYTARQSSIKWWGPRLASHGFVVITIDTNSTLDQPSSRSSQQMAALRQVASLNGTSSSPIYGKVDTARMGVMGWAMGGGGSLISAANNPSLKAAAPQAPWDSSTNFSSVTVPTLIFACENASIAPVNSSALPIYDSMSRNAKQFLEINGGSASCANSGNSNQALIGKKGVAWMKRFMDNDTRYSTFACENPNSTRVSDFRTANCS
Regarding B12, the “Proxy for plastic degradation” value in series [1] (pH 9) and in series [2] (pH 9) was 0 nM in each case.

B13: unnamed (protein)
chain: NPYARGPNPTAASLEASAGPFTVRSFTVSRPSGYGAGTVYYPTNAGGTVGAIAIVPGFTARQSSIKWWGPRLASHGFVVITIDTNSTLDQPSSRSSQQMAALRQVASLNGTSSSPIYGKVDTARMGVMGWSMGGGGSLISAANNPSLKAAAPQAPWDSSTNFSSVTVPTLIFACENDSIAPVNSSALPIYDSMSRNAKQFLEINGGSHSCANSGNSNQALIGKKGVAWMKRFMDNDTRYSTFACENPNSTRVSDFRTANCS
On to B13, for which the “Proxy for plastic degradation” value in series [1] (pH 9) was 0 nM; in series [2] (pH 9), 0 nM; in series [3] (pH 7.5), 0.54 µM.

For the origin of these results see the PETadex activity labels (doi:10.1002/cbic.201800097).
